Reference: publication PMC3783164

Molecular target: SP1 (rhSP1) (Homo sapiens, UniProt P08047 1-785)
Test: EMSA

SP1 (rhSP1), sequence (P08047 whole entry): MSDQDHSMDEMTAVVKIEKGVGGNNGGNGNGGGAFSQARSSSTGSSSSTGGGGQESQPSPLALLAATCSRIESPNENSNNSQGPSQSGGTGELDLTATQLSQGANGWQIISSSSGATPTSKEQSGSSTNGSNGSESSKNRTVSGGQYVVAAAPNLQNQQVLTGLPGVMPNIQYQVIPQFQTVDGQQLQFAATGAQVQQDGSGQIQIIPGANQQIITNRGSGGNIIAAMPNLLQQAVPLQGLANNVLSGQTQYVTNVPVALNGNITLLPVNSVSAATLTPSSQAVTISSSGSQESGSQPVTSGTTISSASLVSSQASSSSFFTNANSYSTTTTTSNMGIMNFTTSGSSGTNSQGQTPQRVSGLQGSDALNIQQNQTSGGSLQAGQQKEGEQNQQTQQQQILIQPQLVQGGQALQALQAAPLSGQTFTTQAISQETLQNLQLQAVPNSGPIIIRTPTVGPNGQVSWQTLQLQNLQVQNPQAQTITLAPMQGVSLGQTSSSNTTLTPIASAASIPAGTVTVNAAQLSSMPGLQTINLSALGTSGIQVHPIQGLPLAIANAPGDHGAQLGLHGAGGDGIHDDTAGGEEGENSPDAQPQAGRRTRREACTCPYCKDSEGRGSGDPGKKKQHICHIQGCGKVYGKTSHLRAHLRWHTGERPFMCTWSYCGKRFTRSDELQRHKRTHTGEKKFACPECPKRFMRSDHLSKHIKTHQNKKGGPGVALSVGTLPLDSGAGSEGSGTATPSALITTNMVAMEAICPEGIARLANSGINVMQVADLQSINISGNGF

Binder | binding result
MRE1.3 (dsDNA) DNA 1: GCAGCAGCCTCCTCCCCCCGCACGGTGTGAGCGCCCGACGCGGCCGAGGCGGCCGGAGTCCCGAG DNA 2: CTCGGGACTCCGGCCGCCTCGGCCGCGTCGGGCGCTCACACCGTGCGGGGGGAGGAGGCTGCTGC | binds
MRE1.3a (25 bp) (dsDNA) DNA 1: GCAGCAGCCTCCTCCCCCCGCACGG DNA 2: CCGTGCGGGGGGAGGAGGCTGCTGC | binds
